For data set [1], the target named is Recombinant histidine-tagged EWSR1 (Ewing sarcoma breakpoint region 1 protein) (UniProt Q01844). The data set is described as follows: BLI.
Data set [2] deals with T1, CHIKV nsP2 (Chikungunya virus, UniProt Q8JUX6 536-1333). The data set can be described thus: EMSA; polyIC; figure description says weak. The following applies: protein: recombinant; tags: His6-SUMO removed. (In general: Mobility shift assays separate free from complexed probe on a gel.)
Data set [3] deals with T2, EWSR1 (UniProt Q01844 1-656). The data set is described as follows: BLI; 2:1 binding model. To be noted: protein: recombinant; tags: N-terminal 6xHis (pET28a). (In general: BLI is a label-free optical method that tracks binding on a fibre tip over time.)
Data set [4] addresses T2, EWSR1. The data set can be described thus: EMSA. The following applies: protein: recombinant; tags: N-terminal 6xHis (pET28a).
The target in data set [5] is T1, CHIKV nsP2. The data set is described as follows: EMSA. The following applies: protein: recombinant; tags: His6-SUMO removed.
Data set [6] has as its target T1, CHIKV nsP2. The data set can be described thus: BLI; 2:1 binding model. To be noted: protein: recombinant; tags: His6-SUMO removed.
The target of data set [7] is T2, EWSR1. The data set can be described thus: EMSA; polyIC. To be noted: protein: recombinant; tags: N-terminal 6xHis (pET28a).
For data set [8], the target named is T1, CHIKV nsP2. The data set is described as follows: EMSA; polyIC. The following applies: protein: recombinant; tags: His6-SUMO removed.

The values that follow come from paper PMC13483453, “Ewing sarcoma breakpoint region 1 (EWSR1) protein binds to nonstructural protein 2 and non-coding regions of chikungunya virus genome to inhibit virus replication”.

T2 sequence (Q01844 whole entry): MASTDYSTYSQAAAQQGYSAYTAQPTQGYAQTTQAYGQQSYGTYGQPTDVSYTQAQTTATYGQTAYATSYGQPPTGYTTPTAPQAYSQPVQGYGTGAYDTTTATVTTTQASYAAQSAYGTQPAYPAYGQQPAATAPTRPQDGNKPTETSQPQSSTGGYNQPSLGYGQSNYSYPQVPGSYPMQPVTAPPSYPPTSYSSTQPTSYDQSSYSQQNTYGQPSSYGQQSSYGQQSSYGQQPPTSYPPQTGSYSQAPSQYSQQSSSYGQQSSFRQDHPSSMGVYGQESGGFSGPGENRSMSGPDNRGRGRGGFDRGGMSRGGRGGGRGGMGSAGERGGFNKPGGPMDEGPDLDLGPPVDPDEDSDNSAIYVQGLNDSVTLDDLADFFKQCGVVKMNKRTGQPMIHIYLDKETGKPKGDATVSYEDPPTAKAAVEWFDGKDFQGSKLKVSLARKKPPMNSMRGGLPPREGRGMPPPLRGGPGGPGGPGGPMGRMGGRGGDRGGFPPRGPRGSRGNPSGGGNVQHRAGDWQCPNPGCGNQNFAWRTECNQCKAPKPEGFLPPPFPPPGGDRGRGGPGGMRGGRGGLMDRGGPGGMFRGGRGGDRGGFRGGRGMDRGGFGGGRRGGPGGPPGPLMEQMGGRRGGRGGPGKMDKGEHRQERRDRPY
Chain of Recombinant histidine-tagged EWSR1 (Ewing sarcoma breakpoint region 1 protein) (Q01844 whole entry): as above

For “Full-length CHIKV nsP2 protein (recombinant) (from UniProt Q8JUX6 536-1333) (enzyme)”, the Kd in data set [1] is 716 nM.

B1: 5NCR-RC50 (ssRNA)
RNA: UCUCUUGCUUUGCAGAGUAGAGCAGUAAGAAACUGGUAGGCUACGUGUGU
On to B1, for which the binding result with CHIKV nsP2 [2] is given as “binds”. In addition, in the data set with EWSR1 [3], the equilibrium dissociation constant (Kd) amounted to 80.2 ± 0.39 nM.

B2: Random48 (ssRNA)
RNA: GUGAUUCAGAGGUUUUUGACUUUAGUAAAUCGCCCAUCCUUUGAUAGA
For B2, the binding result is reported as “no binding” in the data set with EWSR1 [4] and “binds” with CHIKV nsP2 [5].

B3: 3NCR48 (ssRNA)
RNA: UCCGAACCCACAGGGACGUAGGAGAUGUUAUUUUGUUUUUAAUAUUUC
Turning to B3, the Kd was found to be 91.4 ± 0.37 nM in the data set with EWSR1 [3] and 92.9 ± 1.6 nM with CHIKV nsP2 [6].

B4: 14-mer of 3NCR48 (ssRNA)
RNA: GUUUUUAAUAUUUC
Regarding B4, the binding result with EWSR1 [7] and with CHIKV nsP2 [8] was “binds” each time.

One may read the Kd as the equilibrium constant for the complex coming apart.
